Reference: patent US20220162261A1 (published 2022)
Bridge positions count the residues as written; N and C are the ends. Square brackets hold non-standard residues; d marks the D form. Ends that are not written are not given here. Phe(4-tBu) = CC(C)(C)c1ccc(C[C@H](N)C(=O)O)cc1; NMeR = CN[C@@H](CCCNC(=N)N)C(=O)O; β3hE = N[C@@H](CCC(=O)O)CC(=O)O; Pen = CC(C)(S)[C@H](N)C(=O)O

Tests used:
[1] = biological target: T1, human α4β1 integrin on cells (human, UniProt P13612 34-1032; P05556 21-798); test: memory T cell adhesion to VCAM-1
T1 construct: whole, on cells; also called α4β1 cell; Jurkat cells

[2] = biological target: T2, human α4β7 integrin on cells (human, UniProt P13612 34-1032; P26010 20-798); test: α4β7 T cells
T2 construct: whole, on cells; also called α4β7 cell (Hu); RPMI8866 cells

[3] = biological target: T3, rh integrin α4β7 (R&D Systems #5397-A30) (human, UniProt P13612 34-970; P26010 20-723); test: competition ELISA vs MAdCAM-1, 1 mM Mg
T3 construct: bought; coated on a nickel coated plate; also called immobilized α4β7; immobilized α4β7 integrin protein

[4] = biological target: T2, human α4β7 integrin on cells; test: RPMI8866 cell adhesion to MAdCAM-1
[5] = biological target: T4, α4β1 (R&D Systems #5668-A4) (UniProt P13612 34-970; P05556 21-728, limits assumed); test: competition ELISA vs VCAM-1, 1 mM Mg
T4 construct: bought; also called soluble α4β1
Procedure: The solution was removed by shaking and then blocked with 250 ul of 1% BSA in 1×PBS per well. The wells were then incubated at room temperature for 1 hr with shaking. Each well was then washed once with wash buffer (50 mM Tris-HCl pH7.6, 100 mM NaCL, 1 mM MnCl2 or MgCl2, 0.05% Tween-20). 25 ul of serial dilutions of peptides starting at […] in assay buffer (Assay buffer: 50 mM Tris-HCl pH7.6, 100 mM NaCl, 1 mM MnCl2 or MgCl2, 0.05% Tween-20) was added to each well. Additionally, 25 ul of α4β1 (R&D Systems #5668-A4) was added to each well at a fixed concentration of 120 nM. The final peptide and α4β1 concentrations were […] and 60 nM, respectively. The plates were then incubated at 37° C. for 2 hr. The solution was then removed by shaking, and each well was washed three times with wash buffer. 50 ul of 9F10 antibody at 4 ug/ml (purified mouse anti-human CD49d, BD Bioscience Cat #555502) was then added to each well, and the plate was incubated at room temperature for 1 hr with shaking. The solution was again removed by shaking, and each well was washed three times with wash buffer. 50 ul of peroxidase-conjugated AffiniPure Goat anti-mouse IgG (Jackson immune research cat #115-035-003) diluted in 1:5000 in assay buffer was added to each well. The plate was incubated at room temperature for 30 min with shaking. […] The reaction was stepped with 2N H₂SO₄ and absorbance was read at 450 nm. […]

[6] = biological target: T2, human α4β7 integrin on cells; test: memory T cell adhesion to MAdCAM-1, average of 4 donors
[7] = biological target: T5, human αLβ2 integrin on cells (human, UniProt P20701 26-1170; P05107 23-769); test: memory T cell adhesion to ICAM-1
T5 construct: whole, on cells; also called aLβ2
T5 sequence (P20701 26-1170, chain 1 of 2): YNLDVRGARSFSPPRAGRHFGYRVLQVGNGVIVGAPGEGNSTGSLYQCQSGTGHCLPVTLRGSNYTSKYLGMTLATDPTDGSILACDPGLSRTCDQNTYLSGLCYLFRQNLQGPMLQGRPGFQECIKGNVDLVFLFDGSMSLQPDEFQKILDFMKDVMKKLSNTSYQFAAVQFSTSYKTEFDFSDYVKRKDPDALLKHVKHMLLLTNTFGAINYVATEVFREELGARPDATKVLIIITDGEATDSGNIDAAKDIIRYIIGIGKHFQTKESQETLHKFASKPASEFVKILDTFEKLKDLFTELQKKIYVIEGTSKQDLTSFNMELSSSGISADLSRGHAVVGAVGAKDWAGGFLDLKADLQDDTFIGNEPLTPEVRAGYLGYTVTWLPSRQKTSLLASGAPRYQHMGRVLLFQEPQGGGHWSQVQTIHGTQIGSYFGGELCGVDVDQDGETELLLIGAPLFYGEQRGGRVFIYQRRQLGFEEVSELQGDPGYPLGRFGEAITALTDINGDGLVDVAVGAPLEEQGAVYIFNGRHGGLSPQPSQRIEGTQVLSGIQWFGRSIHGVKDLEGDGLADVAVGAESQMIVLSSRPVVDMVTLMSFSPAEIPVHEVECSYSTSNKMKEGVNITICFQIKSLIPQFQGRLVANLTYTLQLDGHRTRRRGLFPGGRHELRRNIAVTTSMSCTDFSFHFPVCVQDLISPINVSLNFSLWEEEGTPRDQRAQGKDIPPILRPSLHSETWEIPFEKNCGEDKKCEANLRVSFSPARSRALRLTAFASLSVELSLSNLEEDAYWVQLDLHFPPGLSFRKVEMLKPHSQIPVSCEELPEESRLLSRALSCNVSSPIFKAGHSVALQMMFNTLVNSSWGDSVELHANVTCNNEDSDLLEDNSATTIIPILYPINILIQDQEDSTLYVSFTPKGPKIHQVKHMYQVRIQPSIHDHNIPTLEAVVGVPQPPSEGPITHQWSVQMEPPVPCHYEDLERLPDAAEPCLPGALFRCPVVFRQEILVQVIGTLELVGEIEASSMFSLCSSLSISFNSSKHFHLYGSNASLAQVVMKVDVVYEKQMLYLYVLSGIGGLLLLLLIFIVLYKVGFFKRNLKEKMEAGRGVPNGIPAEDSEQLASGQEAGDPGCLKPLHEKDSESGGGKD
T5 sequence (P05107 23-769, chain 2 of 2): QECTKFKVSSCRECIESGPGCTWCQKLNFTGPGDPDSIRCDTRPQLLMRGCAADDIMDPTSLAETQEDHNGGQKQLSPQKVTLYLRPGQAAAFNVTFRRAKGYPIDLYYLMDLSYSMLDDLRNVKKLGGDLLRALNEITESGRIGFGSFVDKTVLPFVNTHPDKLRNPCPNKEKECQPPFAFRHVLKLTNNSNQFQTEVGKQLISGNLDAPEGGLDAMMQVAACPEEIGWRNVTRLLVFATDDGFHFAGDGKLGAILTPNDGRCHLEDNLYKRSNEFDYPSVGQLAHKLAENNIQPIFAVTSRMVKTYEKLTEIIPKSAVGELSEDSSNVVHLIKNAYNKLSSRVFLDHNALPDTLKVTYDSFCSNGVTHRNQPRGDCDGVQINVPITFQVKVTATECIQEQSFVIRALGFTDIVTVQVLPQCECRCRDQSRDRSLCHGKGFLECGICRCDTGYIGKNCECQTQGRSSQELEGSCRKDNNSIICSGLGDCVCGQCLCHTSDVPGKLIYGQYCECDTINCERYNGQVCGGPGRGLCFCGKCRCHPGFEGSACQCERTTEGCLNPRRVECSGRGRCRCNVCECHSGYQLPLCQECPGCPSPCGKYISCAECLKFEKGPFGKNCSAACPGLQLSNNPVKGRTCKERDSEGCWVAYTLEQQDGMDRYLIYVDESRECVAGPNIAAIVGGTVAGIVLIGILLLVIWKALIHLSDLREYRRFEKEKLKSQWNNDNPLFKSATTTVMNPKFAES

[8] = biological target: T6, mouse α4β7 integrin on TK1 cells (mouse, UniProt Q00651 41-1039; P26011 20-806); test: TK1 cell adhesion to MAdCAM-1
T6 construct: whole, on cells; also called α4β7 cell (Mu); Cell Adhesion α4β7 Mouse
T6 sequence (Q00651 41-1039, chain 1 of 2): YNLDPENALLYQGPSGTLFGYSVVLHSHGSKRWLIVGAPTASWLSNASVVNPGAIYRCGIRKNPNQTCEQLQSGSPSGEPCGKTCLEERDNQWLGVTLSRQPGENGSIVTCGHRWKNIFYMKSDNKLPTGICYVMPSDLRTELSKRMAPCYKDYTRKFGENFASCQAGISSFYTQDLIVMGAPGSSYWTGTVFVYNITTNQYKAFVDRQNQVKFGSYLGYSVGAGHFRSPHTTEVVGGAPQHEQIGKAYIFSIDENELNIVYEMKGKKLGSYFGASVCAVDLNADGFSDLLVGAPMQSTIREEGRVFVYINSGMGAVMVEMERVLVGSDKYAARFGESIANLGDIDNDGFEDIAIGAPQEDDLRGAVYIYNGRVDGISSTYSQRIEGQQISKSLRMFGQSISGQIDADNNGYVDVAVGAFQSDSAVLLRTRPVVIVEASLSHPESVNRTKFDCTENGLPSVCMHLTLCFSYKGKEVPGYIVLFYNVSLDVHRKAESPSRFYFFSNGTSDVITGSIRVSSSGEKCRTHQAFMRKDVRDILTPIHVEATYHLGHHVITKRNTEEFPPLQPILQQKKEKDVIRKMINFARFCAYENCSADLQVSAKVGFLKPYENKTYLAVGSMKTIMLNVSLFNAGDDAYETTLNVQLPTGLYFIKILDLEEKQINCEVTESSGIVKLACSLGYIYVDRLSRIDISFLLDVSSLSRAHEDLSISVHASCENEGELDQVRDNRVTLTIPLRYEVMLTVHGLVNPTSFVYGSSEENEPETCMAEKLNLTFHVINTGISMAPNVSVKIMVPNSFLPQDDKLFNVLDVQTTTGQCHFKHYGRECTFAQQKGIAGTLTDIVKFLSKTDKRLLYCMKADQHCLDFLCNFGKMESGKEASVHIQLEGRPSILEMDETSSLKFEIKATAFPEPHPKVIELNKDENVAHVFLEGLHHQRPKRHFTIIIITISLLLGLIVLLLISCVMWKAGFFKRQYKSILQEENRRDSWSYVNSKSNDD
T6 sequence (P26011 20-806, chain 2 of 2): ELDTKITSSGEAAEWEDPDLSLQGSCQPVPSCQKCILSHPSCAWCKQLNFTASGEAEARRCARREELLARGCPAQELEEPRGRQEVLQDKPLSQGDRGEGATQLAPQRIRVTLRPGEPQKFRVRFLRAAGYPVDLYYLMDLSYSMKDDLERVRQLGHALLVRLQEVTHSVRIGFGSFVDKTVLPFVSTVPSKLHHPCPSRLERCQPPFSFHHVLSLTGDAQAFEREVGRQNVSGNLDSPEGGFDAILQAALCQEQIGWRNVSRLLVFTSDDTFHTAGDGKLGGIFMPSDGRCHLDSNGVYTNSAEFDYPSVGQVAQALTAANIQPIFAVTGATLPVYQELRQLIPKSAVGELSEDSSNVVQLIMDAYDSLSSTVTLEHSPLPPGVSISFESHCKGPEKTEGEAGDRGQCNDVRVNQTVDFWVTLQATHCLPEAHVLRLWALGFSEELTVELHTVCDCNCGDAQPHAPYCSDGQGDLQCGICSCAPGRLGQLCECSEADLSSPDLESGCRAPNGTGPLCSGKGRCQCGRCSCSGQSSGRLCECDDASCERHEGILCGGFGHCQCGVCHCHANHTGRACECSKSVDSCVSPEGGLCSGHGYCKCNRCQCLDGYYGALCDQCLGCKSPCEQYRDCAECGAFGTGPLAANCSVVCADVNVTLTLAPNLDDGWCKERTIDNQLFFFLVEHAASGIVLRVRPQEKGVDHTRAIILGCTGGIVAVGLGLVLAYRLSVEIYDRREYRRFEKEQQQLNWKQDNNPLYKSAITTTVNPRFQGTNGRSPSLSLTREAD

soluble α4β7 integrin [9] = biological target: T7, soluble α4β7 integrin (UniProt P13612 34-970; P26010 20-723, limits assumed); test: SPR
T7 construct: analyte of the SPR experiment

soluble α4β7 integrin [10] = biological target: T7, soluble α4β7 integrin; test: SPR, binder on streptavidin chip, soluble α4β7
[11] = biological target: T2, human α4β7 integrin on cells; test: RPMI8866/MAdCAM cell adhesion

B1: Peptide X (peptide)
peptide: Ac-[Pen][NMeR]SDTL[Pen][Phe(4-tBu)][β3hE][dK]
modifications: disulfide 1-7; not fully specified (residue 10); printed as [Ac-Pen-(N-Me-Arg)-Ser-Asp-Thr-Leu-Pen-Phe(4-tBu)-(β-homoGlu)-(D-Lys)]2-DIG; also: homodimer via DIG linker on D-Lys side chains
notes: also called Compound X
IC50 [1]: > 100000 nM | IC50 [2]: 1 nM | IC50 [3]: 3 nM | IC50 [4]: 0.72 nM | IC50 [5]: > 10000 nM | IC50 [6]: 1.3 nM | IC50 [7]: > 100000 nM | IC50 [8]: 0.5 nM

B2: Peptide X-biotin (peptide)
peptide: Ac-[Pen][NMeR]SDTL[Pen][Phe(4-tBu)][β3hE][dK]
modifications: disulfide 1-7; not fully specified (residue 10); also: dimer of two subunits joined by a linker at D-Lys10, biotin attached via PEG linker, position not given here
fold lower KD than biotin-labeled vedolizumab (soluble α4β7 integrin [9]): 3.8 fold | Kd (soluble α4β7 integrin [10]): 15.4 nM | koff (soluble α4β7 integrin [10]): 1.73e-05 s⁻¹ | kon (soluble α4β7 integrin [10]): 1120 M⁻¹ s⁻¹

B3: Peptide X Alexa 647 conjugate (peptide)
peptide: Ac-[Pen][NMeR]SDTL[Pen][Phe(4-tBu)][β3hE][dK]
modifications: disulfide 1-7; not fully specified (residue 10); also: Alexa 647 label, position not given here
IC50 [11]: 0.15 nM
